Experiments:
Assay in all cases: peptide or protein array
[1] = molecular target: Mal12p (spotted on the yeast ProtoArray) (S. cerevisiae, UniProt P53341 1-584)
[2] = molecular target: Mal32p (spotted on the yeast ProtoArray) (S. cerevisiae, UniProt P38158 1-584)
[3] = molecular target: T1, Aip1p (spotted on the yeast ProtoArray) (S. cerevisiae, UniProt P46680 1-615)
T1 sequence (looked up): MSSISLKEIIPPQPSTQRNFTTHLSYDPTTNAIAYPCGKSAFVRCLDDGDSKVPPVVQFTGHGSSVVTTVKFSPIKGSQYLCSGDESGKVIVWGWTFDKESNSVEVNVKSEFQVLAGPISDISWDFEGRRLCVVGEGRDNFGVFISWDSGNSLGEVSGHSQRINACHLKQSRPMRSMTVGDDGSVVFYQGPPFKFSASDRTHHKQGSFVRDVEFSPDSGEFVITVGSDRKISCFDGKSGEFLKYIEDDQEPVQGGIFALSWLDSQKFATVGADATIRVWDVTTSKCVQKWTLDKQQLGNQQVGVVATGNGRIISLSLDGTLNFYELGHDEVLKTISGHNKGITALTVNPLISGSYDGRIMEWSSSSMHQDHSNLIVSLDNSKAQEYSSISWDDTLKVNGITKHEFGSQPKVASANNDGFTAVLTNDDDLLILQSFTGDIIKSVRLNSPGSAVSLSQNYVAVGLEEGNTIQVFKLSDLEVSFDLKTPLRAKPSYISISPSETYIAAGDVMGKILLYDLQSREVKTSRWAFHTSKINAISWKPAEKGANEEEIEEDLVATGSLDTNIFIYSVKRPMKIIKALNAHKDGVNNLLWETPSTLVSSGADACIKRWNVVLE

[4] = molecular target: T2, Qcr6p (spotted on the yeast ProtoArray) (S. cerevisiae, UniProt P00127 1-147)
T2 sequence (looked up): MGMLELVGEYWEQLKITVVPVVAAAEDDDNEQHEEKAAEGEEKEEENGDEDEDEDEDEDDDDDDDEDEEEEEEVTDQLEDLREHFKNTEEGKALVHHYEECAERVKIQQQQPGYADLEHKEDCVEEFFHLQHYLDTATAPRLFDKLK

[5] = molecular target: T3, Nap1p (spotted on the yeast ProtoArray) (S. cerevisiae, UniProt P25293 1-417)
T3 sequence (looked up): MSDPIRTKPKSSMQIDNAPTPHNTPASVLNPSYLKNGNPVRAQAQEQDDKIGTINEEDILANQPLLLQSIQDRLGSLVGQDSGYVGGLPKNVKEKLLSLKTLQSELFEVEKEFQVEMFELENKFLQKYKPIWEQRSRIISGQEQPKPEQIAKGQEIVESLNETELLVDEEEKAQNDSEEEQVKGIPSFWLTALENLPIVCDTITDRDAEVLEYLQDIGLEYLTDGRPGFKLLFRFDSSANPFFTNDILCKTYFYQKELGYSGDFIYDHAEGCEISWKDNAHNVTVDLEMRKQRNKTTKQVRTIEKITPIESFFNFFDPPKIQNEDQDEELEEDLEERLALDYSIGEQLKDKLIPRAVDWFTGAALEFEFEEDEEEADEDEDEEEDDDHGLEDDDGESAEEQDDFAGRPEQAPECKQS

[6] = molecular target: T4, Drs1p (spotted on the yeast ProtoArray) (S. cerevisiae, UniProt P32892 1-752)
T4 sequence (looked up): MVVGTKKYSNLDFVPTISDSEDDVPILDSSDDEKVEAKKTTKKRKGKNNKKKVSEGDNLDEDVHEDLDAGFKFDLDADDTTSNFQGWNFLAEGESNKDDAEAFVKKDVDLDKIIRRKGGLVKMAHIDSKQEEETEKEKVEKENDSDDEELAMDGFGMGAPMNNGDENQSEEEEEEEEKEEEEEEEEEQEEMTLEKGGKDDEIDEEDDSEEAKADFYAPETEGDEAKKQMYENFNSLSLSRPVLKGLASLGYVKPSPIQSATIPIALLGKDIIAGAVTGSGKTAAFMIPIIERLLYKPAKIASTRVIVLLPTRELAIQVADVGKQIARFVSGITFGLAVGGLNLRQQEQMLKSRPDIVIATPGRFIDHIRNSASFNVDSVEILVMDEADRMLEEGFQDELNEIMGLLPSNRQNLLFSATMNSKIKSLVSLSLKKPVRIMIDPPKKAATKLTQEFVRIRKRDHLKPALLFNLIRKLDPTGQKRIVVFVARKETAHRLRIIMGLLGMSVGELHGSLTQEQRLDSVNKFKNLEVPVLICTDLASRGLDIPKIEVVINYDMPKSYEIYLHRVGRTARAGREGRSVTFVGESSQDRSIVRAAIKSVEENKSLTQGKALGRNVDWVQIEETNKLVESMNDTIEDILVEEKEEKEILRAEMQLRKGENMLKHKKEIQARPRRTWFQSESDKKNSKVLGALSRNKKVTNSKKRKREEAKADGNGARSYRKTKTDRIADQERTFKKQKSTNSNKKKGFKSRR

Chain of Mal32p (spotted on the yeast ProtoArray) (P38158 whole entry): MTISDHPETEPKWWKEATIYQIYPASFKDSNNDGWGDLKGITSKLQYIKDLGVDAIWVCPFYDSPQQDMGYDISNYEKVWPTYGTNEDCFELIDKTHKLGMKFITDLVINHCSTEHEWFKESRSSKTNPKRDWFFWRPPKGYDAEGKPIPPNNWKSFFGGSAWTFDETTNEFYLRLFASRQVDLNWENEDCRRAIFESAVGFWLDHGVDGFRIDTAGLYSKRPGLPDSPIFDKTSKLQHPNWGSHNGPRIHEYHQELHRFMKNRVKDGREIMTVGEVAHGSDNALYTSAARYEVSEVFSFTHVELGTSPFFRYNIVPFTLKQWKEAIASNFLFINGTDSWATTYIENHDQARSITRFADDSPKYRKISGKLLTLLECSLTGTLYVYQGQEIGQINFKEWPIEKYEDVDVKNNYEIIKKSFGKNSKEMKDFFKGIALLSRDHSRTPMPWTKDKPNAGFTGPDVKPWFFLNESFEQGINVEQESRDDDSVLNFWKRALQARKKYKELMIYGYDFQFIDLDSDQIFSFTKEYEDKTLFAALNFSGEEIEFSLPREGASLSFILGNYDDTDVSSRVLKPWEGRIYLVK
Chain of Mal12p (spotted on the yeast ProtoArray) (P53341 whole entry): as the sequence (P38158 whole entry) above, with L305V, F467L counted along it

binding result [1]: binds
binding result [2]: binds
binding result [3]: binds
binding result [4]: binds
binding result [5]: binds
binding result [6]: binds
B1: purified and biotinylated cytoplasmic domain of the Msb2p protein (HIS-Msb2p^CYT) (domain or fragment, S. cerevisiae, UniProt P32334 1207-1306, looked up)
chain: AFKYIIRRRIQSQEIIKNPEISSISSSEFGGEKNYNNEKRMSVQESITQSMRIQNWMDDSYYGHGLTNNDSTPTRHNTSSSIPKISRPIASQNSLGWNEV
modifications: biotinylated in vitro (sites not given)

From doi:10.1101/786475 (bioRxiv, 2019)
